Reference: patent US11844843

Target: recombinant human TfR1 (transferrin receptor protein 1) (human) (UniProt P02786)
Assay: Carterra LSA SPR, 25 C; IgG captured, hTfR1 as analyte; 1:1 fit

Chain of recombinant human TfR1 (transferrin receptor protein 1) (human) (P02786 89-760 limits assumed): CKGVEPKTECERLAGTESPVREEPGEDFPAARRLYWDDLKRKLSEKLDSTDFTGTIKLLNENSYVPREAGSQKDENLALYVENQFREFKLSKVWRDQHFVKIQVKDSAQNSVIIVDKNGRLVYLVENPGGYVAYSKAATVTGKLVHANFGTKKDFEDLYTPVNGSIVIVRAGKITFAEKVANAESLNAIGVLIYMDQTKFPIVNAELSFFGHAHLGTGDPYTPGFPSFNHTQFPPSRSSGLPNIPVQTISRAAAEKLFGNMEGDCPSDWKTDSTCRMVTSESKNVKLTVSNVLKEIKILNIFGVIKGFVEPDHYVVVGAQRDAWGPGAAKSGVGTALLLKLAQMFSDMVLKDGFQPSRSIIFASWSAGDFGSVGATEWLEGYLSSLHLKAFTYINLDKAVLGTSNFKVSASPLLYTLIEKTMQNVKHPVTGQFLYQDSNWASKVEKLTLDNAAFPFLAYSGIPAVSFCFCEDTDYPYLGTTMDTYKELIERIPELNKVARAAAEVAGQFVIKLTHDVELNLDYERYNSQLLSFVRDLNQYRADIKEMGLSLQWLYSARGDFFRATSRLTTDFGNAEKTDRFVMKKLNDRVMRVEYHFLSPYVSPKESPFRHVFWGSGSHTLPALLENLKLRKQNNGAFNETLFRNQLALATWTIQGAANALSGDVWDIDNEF

For OKT9 mIgG (control anti-TfR1 antibody), the Kd was 536 pM and the kon was 774000 M⁻¹ s⁻¹.
